Consider three substances from publication doi:10.1101/419911.

Experiment [1] deals with AP2M1 (residues 160-435) (human) (UniProt Q96CW1). In words: ITC. (Isothermal titration calorimetry measures the heat released or taken up as one component is titrated into another.)
Another experiment addresses AP2M1 160-435 (UniProt Q96CW1). In words: isothermal titration calorimetry. Particulars: reference: unphosphorylated peptide YMPMS; sites S616.

Sequence of UniProt Q96CW1 (Q96CW1 160-435): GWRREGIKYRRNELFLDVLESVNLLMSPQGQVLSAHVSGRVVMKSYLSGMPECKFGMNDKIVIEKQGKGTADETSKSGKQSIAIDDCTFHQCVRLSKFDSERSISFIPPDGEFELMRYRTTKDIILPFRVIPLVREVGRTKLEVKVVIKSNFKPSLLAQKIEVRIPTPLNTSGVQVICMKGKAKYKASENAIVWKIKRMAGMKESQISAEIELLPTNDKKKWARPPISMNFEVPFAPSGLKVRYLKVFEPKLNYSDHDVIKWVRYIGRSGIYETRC

Turning to “IRS1 peptide YMPMpS (phospho-S616), pS-IRS1”, the Kd (commonly the concentration at which binding is half-saturated) in experiment [1] was 280 nM.

In experiment [1], IRS1 peptide YMPMS (unphosphorylated) yielded an equilibrium dissociation constant (Kd) of 2030 nM. This Kd is about 7.2-fold higher than that of the substance before.

As to “IRS1 607-620 (from UniProt P35568) YMPMpS peptide (pS-IRS1)”, the KD entry in the experiment with AP2M1 160-435 is “stronger; reference 2.03 µM”.
